Measured values: article PMC5638942

Tests used:
PTHR1 (Homo sapiens) = PTHR1 (Homo sapiens) (UniProt Q03431); experiment: radioligand competition; details: cited from earlier work
[1] = molecular target: PTH1 receptor (PTHR1), recombinant, on transfected HEK 293a cells (UniProt Q03431)

PTH, sequence (P01270 32-115): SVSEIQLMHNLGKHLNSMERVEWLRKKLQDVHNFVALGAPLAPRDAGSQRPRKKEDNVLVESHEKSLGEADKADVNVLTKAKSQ

PTH1-34 1-34 (from UniProt P01270)
Ki (PTHR1 (Homo sapiens)): 4 nM

PTH (from UniProt P01270)
Ki (PTHR1 (Homo sapiens)): 2 nM

PTH-HRP (prepro-PTH(1-84) fused to the N-terminus of horseradish peroxidase, N175S mutant) (from UniProt P01270 32-115) (ligand)
potency in cyclic AMP generation (10 min) in HEK 293a cells expressing PTHR1, against PTH(1-34) [1]: 5 fold
